The target in the assay is human recombinant μ opioid receptor (human) (UniProt P35372).

Numbered stars: 1 amine (or outer) side, 2 acyl side, 3 side chain; on linkers, the order of the positions; unused ones are H or OH. Bridge positions count the residues as written; N and C are the ends. Square brackets hold non-standard residues; d marks the D form. Primed or numbered codes have the meaning given here. Ends that are not written are not given here. dR(Nα-6-aminohexyl) = N=C(N)NCCC[C@H](C(=O)[*:2])N(CCCCCCN[*:3])[*:1]; dR(Nα-3-aminopropyl) = N=C(N)NCCC[C@H](C(=O)[*:2])N(CCCN[*:3])[*:1]; Gly(N-2-aminoethyl)′ = not defined here; CO = O=C([*:1])[*:2]; Sar = CNCC(=O)O

Nine molecules from paper PMC7689096, “Cyclizing Painkillers: Development of Backbone-Cyclic TAPS Analogs” (Frontiers in Chemistry, 2020) can be followed below.

Sequence of human recombinant μ opioid receptor (human) (P35372 whole entry): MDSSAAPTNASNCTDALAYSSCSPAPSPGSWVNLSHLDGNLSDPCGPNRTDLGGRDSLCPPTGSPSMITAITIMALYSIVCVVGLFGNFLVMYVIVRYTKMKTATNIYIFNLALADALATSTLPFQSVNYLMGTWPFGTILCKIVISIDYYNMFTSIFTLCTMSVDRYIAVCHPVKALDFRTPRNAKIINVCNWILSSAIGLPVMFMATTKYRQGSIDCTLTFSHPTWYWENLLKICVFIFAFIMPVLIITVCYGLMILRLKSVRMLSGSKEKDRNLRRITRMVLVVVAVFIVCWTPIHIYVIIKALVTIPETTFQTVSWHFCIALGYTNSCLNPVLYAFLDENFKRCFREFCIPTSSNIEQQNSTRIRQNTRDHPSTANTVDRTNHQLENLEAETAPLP

For the molecule Y[dR(Nα-6-aminohexyl)]F[Gly(N-3-aminopropyl)] (bridge 2-4 via CO; not fully specified) [TAPS c(3-6)], the MOP agonist (%) at 10^-6 M: percent of control specific agonist response (DAMGO), CHO cells expressing human recombinant μ receptors; values lower than 25% are not significant was 1%.
As for Y[dR(Nα-6-aminohexyl)]F[Gly(N-2-aminoethyl)′]-NH2 (bridge 2-4 via CO; not fully specified) [TAPS c(2-6)], the MOP agonist (%) at 10^-6 M: percent of control specific agonist response (DAMGO), CHO cells expressing human recombinant μ receptors stood at 48%.
For the molecule Y[dR(Nα-6-aminohexyl)]F[Gly(N-4-aminobutyl)] (bridge 2-4 via CO; not fully specified) [TAPS c(4-6)], the MOP agonist (%) at 10^-6 M: percent of control specific agonist response (DAMGO), CHO cells expressing human recombinant μ receptors; values lower than 25% are not significant amounted to 1%.
As for Y[dR(Nα-3-aminopropyl)]F[Gly(N-2-aminoethyl)′] (bridge 2-4 via CO; not fully specified) [TAPS c(2-3)], the MOP agonist (%) at 10^-6 M: percent of control specific agonist response (DAMGO), CHO cells expressing human recombinant μ receptors; values lower than 25% are not significant came to 24%.
As for Y[dR(Nα-6-aminohexyl)]F[Gly(N-6-aminohexyl)] (bridge 2-4 via CO; not fully specified) [TAPS c(6-6)], the MOP agonist (%) at 10^-6 M: percent of control specific agonist response (DAMGO), CHO cells expressing human recombinant μ receptors; values lower than 25% are not significant came to 21%.
For the molecule Y[dR(Nα-3-aminopropyl)]F[Gly(N-4-aminobutyl)] (bridge 2-4 via CO; not fully specified) [TAPS c(4-3)], the MOP agonist (%) at 10^-6 M: percent of control specific agonist response (DAMGO), CHO cells expressing human recombinant μ receptors came out at 63%.
With Y[dR(Nα-3-aminopropyl)]F[Gly(N-3-aminopropyl)] (bridge 2-4 via CO; not fully specified) [TAPS c(3-3)], the MOP agonist (%) at 10^-6 M: percent of control specific agonist response (DAMGO), CHO cells expressing human recombinant μ receptors; values lower than 25% are not significant was 1%.
As to Y[dR(Nα-3-aminopropyl)]F[Gly(N-6-aminohexyl)] (bridge 2-4 via CO; not fully specified) [TAPS c(6-3)], the MOP agonist (%) at 10^-6 M: percent of control specific agonist response (DAMGO), CHO cells expressing human recombinant μ receptors amounted to 75%.
Consider Y[dR]F[Sar] [linear peptide Tyr-D-Arg-Phe-Sar (TAPS)], for which the MOP agonist (%) at 10^-6 M: percent of control specific agonist response (DAMGO), CHO cells expressing human recombinant μ receptors was determined as 90%.
